Source: paper PMC6003227 (Molecular Biology of the Cell, 2018)

Target: T1, MBP-Cdc12(1–765-6A) (S. pombe, UniProt Q10059 1-765, T20A | T22A | S64A | T95A | T151A | S463A)
T1 sequence (looked up): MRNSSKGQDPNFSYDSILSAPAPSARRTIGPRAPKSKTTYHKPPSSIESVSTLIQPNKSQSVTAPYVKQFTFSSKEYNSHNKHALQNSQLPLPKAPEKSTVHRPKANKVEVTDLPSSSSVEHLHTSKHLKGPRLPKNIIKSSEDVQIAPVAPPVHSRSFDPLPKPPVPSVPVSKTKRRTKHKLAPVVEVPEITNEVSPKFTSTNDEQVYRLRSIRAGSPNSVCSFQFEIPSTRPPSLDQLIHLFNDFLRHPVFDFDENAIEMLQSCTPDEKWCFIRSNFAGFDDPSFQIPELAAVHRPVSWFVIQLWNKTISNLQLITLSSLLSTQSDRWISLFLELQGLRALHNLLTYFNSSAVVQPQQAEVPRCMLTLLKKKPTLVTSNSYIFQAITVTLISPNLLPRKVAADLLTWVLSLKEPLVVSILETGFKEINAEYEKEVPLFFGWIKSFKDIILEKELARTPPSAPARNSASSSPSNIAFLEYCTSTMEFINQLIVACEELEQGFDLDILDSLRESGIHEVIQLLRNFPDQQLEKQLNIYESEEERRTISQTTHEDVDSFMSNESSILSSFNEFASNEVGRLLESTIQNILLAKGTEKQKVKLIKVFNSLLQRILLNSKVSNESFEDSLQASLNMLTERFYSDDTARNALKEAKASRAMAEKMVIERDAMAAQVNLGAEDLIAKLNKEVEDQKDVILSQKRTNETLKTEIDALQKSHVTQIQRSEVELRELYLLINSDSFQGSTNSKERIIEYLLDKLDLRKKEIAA
Test: pull-down

B1: Cdc15 F-BAR(19–312) (domain or fragment, S. pombe, UniProt Q09822 19-312, looked up)
chain: SVKFRDNFWGSEDAGMDALMSRTKSSLSVLESIDEFYAKRASIEREYASKLQELAASSADIPEVGSTLNNILSMRTETGSMAKAHEEVSQQINTELRNKIREYIDQTEQQKVVAANAIEELYQKKTALEIDLSEKKDAYEYSCNKLNSYMRQTKKMTGRELDKYNLKIRQAALAVKKMDAEYRETNELLLTVTREWIDRWTEVCDAFQHIEEYRLEFLKTNMWAYANIISTACVKDDESCEKIRLTLENTNIDEDITQMIQNEGTGTTIPPLPEFNDYFKENGLNYDIDQLISK
binding result: binds
